Results: PMC11169713 (Frontiers in Immunology, 2024)
Where a chain is given by its changes, count along the chain named.

Tests used:
[1] = molecular target: biotinylated H5 A/Indonesia/5/2005 hemagglutinin (Influenza A virus A/Indonesia/5/2005 …, UniProt A5A5L7, strain, biotin (site not stated))
[2] = molecular target: biotinylated H1 A/California/04/2009 hemagglutinin (Influenza A virus A/California/04/2009 …, UniProt C3W5S1, strain, biotin (site not stated))
[3] = molecular target: biotinylated H7 A/Shanghai/02/2013 hemagglutinin (Influenza A virus A/Shanghai/02/2013 …, UniProt R4NN21, strain, biotin (site not stated))

Measured: binding result

B1: L5A7.1 (antibody, V domains shown)
VH: QVQLQQSGPGLVKPSQTLSLTCVISGDSVSSNSAAWDWIRQSPSRGLEWLGRTYYRSKWYSDYAVSVKSRITITPDTSKNQFSLHLNSVTPEDTAVYYCARAGVRIFGVIVDSLDYWGQGTLVTVSS
VL: AIQLTQSPSSLSASVGDRVTITCRASQALNSYLAWYQQKPGKAPKLLIFAASTLQSGVPSRFSGSGSGTDFTLTISSLQPEDFATYYCQLSKTFGPGTRVDIE
binds: [1] | [2] | [3]

B2: L5A7.2 (antibody, V domains shown)
VH: B1 VH with S42T, H85R, I106V
VL: B1 VL with A28G, L29F, N30S, K45Q, F49Y, L90Q
binds: [1] | [2] | [3]

B3: L5A7.3 (antibody, V domains shown)
VH: B1 VH with S33T, K58R, V65D, V104I, V109I
VL: B1 VL with A28G, L29A, F49Y, T72S, L90E
binds: [1] | [2] | [3]

B4: L5A7.4 (antibody, V domains shown)
VH: QVQLQQSGPRLVKPSQTLSLTCAISGDSVSSTSAAWDWIRQSSSRGLEWLGRTYYRSRWYHDYEESVKSRITINADTSKNQFSLQLASVTPEDTAVYYCARAGIRVFGIIVDSLDYWGQGSLVTVSS
VL: B1 VL with A28G, L29F, K45E, F49Y, L90Q, R99K, E103K
binds: [1] | [2] | [3]
